# According to paper PMC6640694:
# Columns and labels:
# Test in all cases: BLI; Octet Red96; 5 μg/mL antibody loaded onto Protein A biosensor, dipped into His-tagged OX40 extracellular domain at 200, 100 and 50 nM or 1600, 800 and 400 nM; 1:1 binding model, global fit
# [1] = target: tOX40.39
# [2] = target: tOX40.23
# [3] = target: tOX40.21
# [4] = target: tOX40.31
# [5] = target: tOX40.37
# [6] = target: tOX40.19
# [7] = target: tOX40.4
# [8] = target: tOX40.54
# [9] = target: tOX40.41
# [10] = target: tOX40.22
# [11] = target: tOX40.15
# [12] = target: tOX40.40
# [13] = target: tOX40.35
# [14] = target: tOX40.50
binder,measurement,setting,value
recombinant His-tagged human OX40 extracellular domain (domain or fragment) LHCVGDTYPSNDRCCHECRPGNGMVSRCSRSQNTVCRPCGPGFYNDVVSSKPCKPCTWCNLRSGSERKQLCTATQDTVCRCRAGTQPLDSYKPGVDCAPCPPGHFSPGDNQACKPWTNCTLAGKHTLQPASNSSDAICEDRDPPATQPQETQGPPARPITVQPTEAWPRTSQGPSTRPVEVPGGRA,Kd,[1],90 nM
same,Kd,[2],5.2 nM
same,Kd,[3],7 nM
same,Kd,[4],22.4 nM
same,Kd,[5],12.5 nM
same,Kd,[6],7.7 nM
same,Kd,[7],9 nM
same,Kd,[8],184 nM
same,Kd,[9],58.4 nM
same,Kd,[10],7.3 nM
same,Kd,[11],6 nM
same,Kd,[12],151 nM
same,Kd,[13],2.7 nM
same,Kd,[14],29.8 nM
